Measurements published in paper PMC6541275.

Molecular target: Wild-type Microplasmin (human) (UniProt P00747)
Sequence of UniProt P00747 (P00747 whole entry): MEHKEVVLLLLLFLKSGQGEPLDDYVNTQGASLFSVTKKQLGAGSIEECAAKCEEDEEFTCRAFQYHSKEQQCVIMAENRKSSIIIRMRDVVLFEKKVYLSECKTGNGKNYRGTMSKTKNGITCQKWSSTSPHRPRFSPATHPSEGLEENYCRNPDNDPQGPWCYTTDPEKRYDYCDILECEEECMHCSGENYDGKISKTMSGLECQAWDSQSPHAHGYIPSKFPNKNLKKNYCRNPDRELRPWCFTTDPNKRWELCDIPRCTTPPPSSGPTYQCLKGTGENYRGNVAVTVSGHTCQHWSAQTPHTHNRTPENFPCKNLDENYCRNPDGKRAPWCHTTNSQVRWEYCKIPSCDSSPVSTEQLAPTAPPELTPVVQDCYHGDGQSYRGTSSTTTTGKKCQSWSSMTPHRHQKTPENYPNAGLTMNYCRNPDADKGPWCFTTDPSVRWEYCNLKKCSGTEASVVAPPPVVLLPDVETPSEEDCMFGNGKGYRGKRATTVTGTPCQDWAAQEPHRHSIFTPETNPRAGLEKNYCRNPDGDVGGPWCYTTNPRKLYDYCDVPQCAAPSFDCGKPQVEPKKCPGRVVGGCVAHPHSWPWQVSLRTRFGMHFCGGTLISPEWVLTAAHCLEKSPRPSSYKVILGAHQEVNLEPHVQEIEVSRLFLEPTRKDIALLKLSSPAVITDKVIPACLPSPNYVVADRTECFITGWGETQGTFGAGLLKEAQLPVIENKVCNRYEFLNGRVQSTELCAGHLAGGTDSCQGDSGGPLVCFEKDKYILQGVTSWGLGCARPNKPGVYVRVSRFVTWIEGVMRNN

In vitro half-life of inactivation by α2-antiplasmin: residual amidolytic activity (Chromozym PL, 405nm) of 20nM microplasmin with 60nM antiplasmin, 100mM sodium phosphate pH 7.2, 25°C, 15sec-30 min: 5 min
B1: α2-antiplasmin (natural protein)
chain: NQEQVSPLTLLKLGNQEPGGQTALKSPPGVCSRDPTPEQTHRLARAMMAFTADLFSLVAQTSTCPNLILSPLSVALALSHLALGAQNHTLQRLQQVLHAGSGPCLPHLLSRLCQDLGPGAFRLAARMYLQKGFPIKEDFLEQSEQLFGAKPVSLTGKQEDDLANINQWVKEATEGKIQEFLSGLPEDTVLLLLNAIHFQGFWRNKFDPSLTQRDSFHLDEQFTVPVEMMQARTYPLRWFLLEQPEIQVAHFPFKNNMSFVVLVPTHFEWNVSQVLANLSWDTLHPPLVWERPTKVRLPKLYLKHQMDLVATLSQLGLQELFQAPDLRGISEQSLVVSGVQHQSTLELSEVGVEAAAATSIAMSRMSLSSFSVNRPFLFFIFEDTTGLPLFVGSVRNPNPSAPRELKEQQDSPGNKDFLQSLKGFPRGDKLFGPDLKLVPPMEEDYPQFGSPK
